Reference: paper PMC4538837, “Structural basis for substrate recognition and processive cleavage mechanisms of the trimeric exonuclease PhoExo I”

Key:
[1] = biological target: C-terminal 4×His-tagged PhoExo I (PhoExo I-CHis) (Pyrococcus horikoshii OT3); assay: SEC; gel filtration on Superdex 200 HR 10/30, 10 mM Tris HCl pH 8.0, 200 mM NaCl; size estimated against standard proteins
[2] = biological target: PhoExo I (native, untagged) (Pyrococcus horikoshii OT3); assay: crystal structure; substrate-free native PhoExo I, three crystal forms (crystals 1-3); sitting-drop vapour diffusion at 20°C; trimer in the asymmetric unit (crystals 1, 2) or by the crystallographic 3-fold axis (crystal 3)
[3] = biological target: PhoExo I-CHis D80N mutant (Pyrococcus horikoshii OT3); assay: crystal structure; PhoExo I-CHis D80N cocrystallised with 7-nt ssDNAs (poly-dA, poly-dC, poly-dT; poly-dT crystal also soaked with 0.1 M MgCl2); 0.1 M MES pH 5.6-5.7, 12-14% PEG6000, 1 M LiCl
[4] = biological target: T1, PhoExo I-CHis (wild type) (Pyrococcus horikoshii OT3, UniProt A0A060P168 1-229); assay: EMSA; 0.1 mM EDTA, no Mg2+; stronger than for the DNA of same sequence; EMSA: 25 mM Hepes-NaOH pH 7.5, 50 mM NaCl, 0.1 mM EDTA, 0.1 mg/ml BSA, 5 nM probe, 0-1600 nM trimer, 5 min 55 C, then 0.05% glutaraldehyde 10 min at room temperature; 7.5% native PAGE in TBE; conditions: protein: recombinant; tags: C-terminal 4xHis; chain copies: 3; label: 5'-32P; single strand
T1 sequence (A0A060P168 entry or part of it): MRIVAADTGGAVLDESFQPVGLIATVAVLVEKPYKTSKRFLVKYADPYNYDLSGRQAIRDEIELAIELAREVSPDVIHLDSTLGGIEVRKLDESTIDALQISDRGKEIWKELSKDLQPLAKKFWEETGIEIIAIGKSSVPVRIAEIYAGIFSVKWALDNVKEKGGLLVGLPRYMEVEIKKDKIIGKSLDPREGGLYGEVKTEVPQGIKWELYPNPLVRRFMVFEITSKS

[5] = biological target: T1, PhoExo I-CHis (wild type); assay: EMSA; 0.1 mM EDTA, no Mg2+; affinity lower than for RNA; EMSA: 25 mM Hepes-NaOH pH 7.5, 50 mM NaCl, 0.1 mM EDTA, 0.1 mg/ml BSA, 5 nM probe, 0-1600 nM trimer, 5 min 55 C, then 0.05% glutaraldehyde 10 min at room temperature; 7.5% native PAGE in TBE; conditions: protein: recombinant; tags: C-terminal 4xHis; chain copies: 3; label: 5'-32P; single strand

“C-terminal 4×His-tagged PhoExo I (PhoExo I-CHis) (enzyme)” showed a stoichiometry N [1] of 3.

In the case of PhoExo I (native, untagged) (enzyme), the stoichiometry N [2] is reported as 3.

PhoExo I-CHis D80N mutant (enzyme) gave a stoichiometry N [3] of 3.

AGCUAUGACCAUGAUUACGAAUUGCUU (ssRNA) [27-nt RNA]: binds [4].

AGCTATGACCATGATTACGAATTGCTT (ssDNA) [27-nt DNA]: binds [5].
